{
  "source": "patent US20090170069A1",
  "about": "(ARIZONA BOARD OF REGENTS ON BEHALF OF THE UNIVERSITY OF …, published 2009)",
  "target": "T1, Vascular Endothelial Growth Factor (VEGF), His-tagged, refolded dimer (UniProt P15692-4 37-135)",
  "T1 sequence (looked up)": "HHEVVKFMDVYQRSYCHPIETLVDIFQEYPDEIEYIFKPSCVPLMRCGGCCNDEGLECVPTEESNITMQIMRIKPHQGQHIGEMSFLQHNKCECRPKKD",
  "data": [
    {"binder": "Flt-1 domain 2 fused to the N-terminal half of firefly luciferase (residues 2-416) (receptor, UniProt P17948 129-229, looked up, not shown: small tags and cut ends) SDTGRPFVEMYSEIPEIIHMTEGRELVIPCRVTSPNITVTLKKFPLDTLIPDGKRIIWDSRKGFIISNATYKEIGLLTCEATVNGHLYKTNYLTHRQTNTIEDAKNIKKGPAPFYPLEDGTAGEQLHKAMKRYALVPGTIAFTDAHIEVNITYAEYFEMSVRLAEAMKRYGLNTNHRIVVCSENSLQFFMPVLGALFIGVAVAPANDIYNERELLNSMNISQPTVVFVSKKGLQKILNVQKKLPIIQKIIIMDSKTDYQGFQSMYTFVTSHLPPGFNEYDFVPESFDRDKTIALIMNSSGSTGLPKGVALPHRTACVRFSHARDPIFGNQIIPDTAILSVVPFHHGFGMFTTLGYLICGFRVVLMYRFEEELFLRSLQDYKIQSALLVPTLFSFFAKSTLIDKYDLSNLHEIASGGAPLSKEVGEAVAKRFHLPGIRQGYGLTETTSAILITPEGDDKPGAVGKVVPFFEAKVVDLDTGKTLGVNQRGELCVRGPMIMSGYVNNPEATNALIDKDG", "values": [
      {"measurement": "fold increase in luminescence", "value": 15, "unit": "fold"}
    ]}
  ]
}
